The values below come from patent publication US20210163606A1 (ATYR PHARMA, published 2021).

The target in test [1] is T1, human NRP2 variant 2 (hNRP2), untagged, on Expi293 cells (Human, UniProt O60462 23-931).
T1 construct: Transcript NM_003872 / NP_003863.2; also called Expi293-hNRP2 clonal cells; Human NRP2a (version 2)
T1 sequence: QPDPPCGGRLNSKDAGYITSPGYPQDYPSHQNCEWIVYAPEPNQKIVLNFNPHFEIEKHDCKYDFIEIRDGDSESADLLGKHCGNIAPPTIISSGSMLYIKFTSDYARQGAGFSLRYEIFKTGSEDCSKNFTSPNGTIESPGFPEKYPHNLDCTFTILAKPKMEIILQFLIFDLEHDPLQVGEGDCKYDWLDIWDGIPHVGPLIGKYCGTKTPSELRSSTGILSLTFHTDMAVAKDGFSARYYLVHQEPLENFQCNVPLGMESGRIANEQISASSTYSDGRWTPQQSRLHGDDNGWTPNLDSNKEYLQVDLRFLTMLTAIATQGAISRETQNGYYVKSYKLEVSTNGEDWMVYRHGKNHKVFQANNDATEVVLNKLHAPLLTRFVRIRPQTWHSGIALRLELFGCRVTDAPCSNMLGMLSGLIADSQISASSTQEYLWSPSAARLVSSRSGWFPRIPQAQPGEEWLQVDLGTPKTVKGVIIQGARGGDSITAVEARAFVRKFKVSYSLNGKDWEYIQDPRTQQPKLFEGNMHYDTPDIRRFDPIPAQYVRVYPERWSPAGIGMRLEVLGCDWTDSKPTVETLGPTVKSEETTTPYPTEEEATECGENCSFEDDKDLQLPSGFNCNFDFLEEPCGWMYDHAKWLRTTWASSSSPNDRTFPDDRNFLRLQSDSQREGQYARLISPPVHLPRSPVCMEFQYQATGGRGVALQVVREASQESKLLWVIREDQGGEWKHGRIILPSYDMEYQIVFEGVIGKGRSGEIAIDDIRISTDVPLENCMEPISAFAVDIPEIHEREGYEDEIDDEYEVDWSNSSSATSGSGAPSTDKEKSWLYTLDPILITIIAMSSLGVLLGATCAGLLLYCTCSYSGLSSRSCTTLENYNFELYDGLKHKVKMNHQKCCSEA
The experiment in a line: flow cytometry on Expi293-hNRP2 clonal cells. The procedure:
Expi293-hNRP2 clonal cells were collected by centrifugation at 300 g for 5 minutes, and washed twice by DPBS (with calcium and magnesium, ThermoFisher Cat #14040133). Washed cells were added to a 96-well V-bottom plate (ThermoFisher Cat #1424572) at 100,000 cells/well in […] of DPBS added with Zombie Violet viability stain (Biolegend Cat #423114, diluted at 1:500). From this step on, cells were protected from light. Cells were kept at room temperature for 10 min and pelleted down at 300 g for 5 minutes at 4° C. Supernatants containing Zombie Violet were discarded, and without washing, 30 uL of antibodies diluted in the flow wash buffer (FWB, DPBS plus 2% FBS and 0.1% sodium azide to inhibit receptor internalization) were added to the cells. For anti-NRP2 antibody staining on Expi293-hNRP2 clonal cells, in-house human anti-NRP2 antibodies were tested at final concentrations of 0.006-100 nM at 4-fold dilutions. […] Binding was allowed to proceed on ice for 40-60 minutes. Cells were then pelleted at 300 g for 5 minutes at 4° C., supernatants removed, and cells washed twice by adding 150 μL of FWB and centrifuging the cells again in the same conditions. To detect a-NRP2 binding on the cell surface, Cy3-conjugated goat anti-human IgG Fc (Jackson ImmunoResearch Cat #109165098) was added to the cells at a final concentration of 3 μg/mL in 30 μL of FWB. After 30-40 minutes of incubation on ice, cells were pelleted at 300 g for 5 minutes at 4° C. and supernatants removed, and the cells were washed twice as described previously. Cells were then resuspended in FWB before acquisition on the Cytoflex. Gains were set based on staining controls. Cells were collected with typically more than 10,000 events. Cells were then analyzed on FlowJo analysis software by excluding dead cells and gating singlets. The statistical analysis was performed using GraphPad Prism. A four-parameter variable-slope curve was fitted to the data ([agonist] vs. response) using non-linear regression, and the EC₅₀ and r2 for each curve was determined.
The EC₅₀ of four anti-NRP2 antibodies directed against different domains of NRP2, were measured for binding to Expi293-hNRP2 clonal cells (see Table E1 and FIG. 3).
(In general: A flow cytometer gives signals particle by particle.)

Test [2] concerns the target T2, cynomolgus monkey NRP2 on transfected Expi293 cells (cynomolgus monkey).
T2 construct: whole, on cells; Plasmid bought from Origene; transient transfection; also called Cyno NRP2
The test can be described thus: flow cytometry on Cyno NRP2-transfected Expi293 cells. The procedure:
Binding of a-NRP2 to cynomolgus monkey NRP2-transfected Expi293 cells. Cynomolgus monkey (cyno) NRP2-transfected Expi293 cells were collected by centrifugation at 300 g for 5 minutes, and washed twice by DPBS (with calcium and magnesium, ThermoFisher Cat #14040133).
Washed cells were added to a 96-well V-bottom plate (ThermoFisher Cat #1424572) at 100,000 cells/well in 50 μL of DPBS added with Zombie Violet viability stain (Biolegend Cat #423114, diluted at 1:500). From this step on, cells were protected from light. Cells were kept at room temperature for 10 min and pelleted down at 300 g for 5 minutes at 4° C. Supernatants containing Zombie Violet were discarded, and without washing, 30 uL of antibodies diluted in the flow wash buffer (FWB, DPBS plus 2% FBS and 0.1% sodium azide to inhibit receptor internalization) were added to the cells. For a-NRP2 staining on Cyno NRP2-transfected Expi293 cells, in-house human anti-NRP2 antibodies were tested at final concentrations of 0.006-100 nM at 4-fold dilutions. For each test, NRP2 over-expression on the cell surface was validated by a-NRP2 staining (10 μg/mL R&D #AF567 a-NRP2) in separate wells. Binding was allowed to proceed on ice for 40-60 minutes. Cells were then pelleted at 300 g for 5 minutes at 4° C., supernatants removed, and cells washed twice by adding 150 μL of FWB and centrifuging the cells again in the same conditions. To detect a-NRP2 binding on the cell surface, Cy3-conjugated goat anti-human IgG Fc or AF647-conjugated donkey anti-goat IgG (Jackson ImmunoResearch Cat #109165098 & 705605147) was added to the cells at a final concentration of 3 μg/mL in 30 μL of FWB. After 30-40 minutes of incubation on ice, cells were pelleted at 300 g for 5 minutes at 4° C. and supernatants removed, and the cells were washed twice as described previously. […] Cells were then analyzed on FlowJo analysis software by excluding dead cells and gating singlets.
The EC₅₀ of three anti-NRP2 antibodies, each against a distinct domain of NRP2, were measured for binding to Cyno NRP2-transfected Expi293 cells (see Table E2 and FIG. 4).

Test [3] concerns the target T3, Cynomolgus NRP2 (aa23-854) with C-terminal Fc-tag (cynomolgus monkey).
T3 construct: range 23-854; sensorgrams fitted to a bivalent analyte model; also called Cynomolgus NRP2 antigen protein
The experiment in a line: SPR (ProteOn XPR36), antibody captured on anti-human Fab-kappa, cyno NRP2-Fc as analyte, bivalent analyte fit. How it is done:
Anti-NRP2 antibody binding and affinity measurements. […] SPR experiments were conducted on a Bio-Rad ProteOn XPR36 Protein Interaction Array instrument. Biotinylated anti-human antibody (ThermoFisher Cat #7103302100) was immobilized on ProteOn NLC sensor chips. Anti-NRP2 antibodies were subsequently flowed over and captured by the anti-human antibody. Cynomolgus NRP2 antigen protein was flowed over the captured antibody at varying concentrations (150, 50, 16.67, 5.56, 1.85 nM). The sensor chip surface was regenerated between each analyte run to remove anti-NRP2 antibodies and NRP2 protein. Data was double referenced against a surface with no anti-NRP2 antibody captured (immobilized anti-human antibody only) and a buffer only blank. Affinity constants were derived by globally fitting sensograms to a bivalent analyte interaction model in the ProteOn manager software. For each anti-NRP2 antibody, data from the multiple NRP2 concentrations was fit as a single data set with dissociation rate constant (kd), association rate constant (kₐ) and Rₘₐₓ values as global parameters. The reported binding affinity is the equilibrium dissociation constant (KD) calculated from kd/kₐ. [0681] Running buffer: 50 mM HEPES, 300 mM NaCl, 5 mM CaCl₂, 0.005% Tween-20, pH 7.4 [0682] Immobilized antibody: CaptureSelect Human Fab-kappa Kinetics Biotin Conjugate, Thermo Fisher Cat #7103302100 [0683] Antigen: Cynomolgus NRP2 (aa23-854) with C-terminal Fc-tag [0684] Regeneration buffer: 10 mM glycine pH 2.0

For test [4], the target named is T1, human NRP2 variant 2 (hNRP2), untagged, …. The test can be described thus: flow cytometry as described for Table E1 (Expi293-hNRP2 cells); the cells for this surrogate are not said separately.

B1: aNRP2-10v13 (antibody, V domains shown)
VH: EVQLVQSGAEVKKPGATVKISCKVSGFNIKDYYVHWVQQAPGKGLEWMGRIDVHDDETKYAPKFQGRVTITADTSTDTAYMELSSLRSEDTAVYYCATPIYGAREAWFAYWGQGTLVTVSS
VL: DIQMTQSPSSLSASVGDRVTITCTASSSVSSSYLHWYQQKPGKAPKLLIYRTSNLASGVPSRFSGSGSGTDFTLTISSLQPEDFATYYCHQYYRSPPTFGGGTKVEIK
What is called EC50 is the concentration at which the effect is half-maximal. For the molecule B1, the EC50 in test [1] came out at 0.65 nM.

B2: aNRP2-11v7 (antibody, V domains shown)
VH: QVQLVQSGAEVKKPGASVKVSCKASGYTFTSFGISWVRQAPGQGLEWIGEIYPRSGNTYYNENFKGRATMTADKSTSTAYMELRSLRSDDTAVYYCARSSGYYGSTPFPYWGQGTLVTVSS
VL: DIQMTQSPSSLSASVGDRVTITCRASQDISNYLNWYQQKPGKAVKLLIYYTSRLHSGVPSRFSGSGSGTDYTFTISSLQPEDIATYYCQQGNTLPWTFGGGTKVEIK
notes: also called aNRP22-11v7
Regarding B2, the EC50 was 5.7 nM in test [2] and 6.3 nM in test [1]. Further, the Kd in test [3] was found to be 12 nM.

B3: aNRP2-28v2/4 (antibody, V domains shown)
VH: QSVKESEGGLFKPTDTLTLTCTVSGFSLSTYSISWVRQAPGNGLEWIGIIGDAGGIIYATWAKSRSTITRSTALNTVTLKMTGLTAADTATYFCARDGTAFDIWGPGTLVTVSS
VL: AYDMTQTPASVEVVVGGTVTIKCQASQSIYSKLGWYQQKPGQPPKLLIYRASTLASGVSSRFKGSGSGTEYTLTISGVQCDDAATYYCQQDYSYINVDNIFGGGTEVVVK
notes: Mouse surrogate antibody; also called aNRP2-28v4
Consider B3, for which, in test [4], a half-maximal effect (EC50) was put at 1.58 nM.

B4: aNRP2-14v9 (antibody, V domains shown)
VH: QLQLVESGGGVVQPGRSLRLSCTVSGFSLTSYGVHWVRQAPGKGLEWVGLIWSGGSTDYSPAFISRFTISEDNSKSTVYLQMNSLRAEDTAVYFCARNSYSSGYYAMDYWGQGTTVTVSS
VL: DIQLTQSPSFLSASVGDRVTITCKASQNVGHAVAWYQQKPGKAPKLLIYSASNRYTGVPSRFSGSGSGTEFTLTISSLQPEDFATYYCQQYSRYPPYTFGGGTKVEIK
As to B4, the concentration giving a half-maximal response (EC50) in test [2] is 2.8 nM; in test [1] it was 1.2 nM. In addition, the Kd in test [3] was determined as 0.017 nM.

B5: aNRP2-14v10 (antibody, V domains shown)
VH: QLQLVESGGGVVQPGRSLRLSCTVSGFSLTSYGVHWVRQAPGKGLEWVGLIWSGGSTDYSPAFISRFTISEDNSKSTVYLQMNSLRAEDTAVYFCARNSYSSGYYAMDYWGQGTTVTVSS
VL: DIQLTQSPSFLSASVGDRVTITCKASQNVGTAVAWYQQKPGKAPKLLIYSASNRYTGVPSRFSGSGSGTEFTLTISSLQPEDFATYYCQQRSRYPPYTFGGGTKVEIK
For the molecule B5, in test [1], the midpoint of the response, the EC50, lay at 47.5 nM.
